Measured values as given in US10428140B2, “Anti-EphA4 antibody” (EISAI R&D MANAGEMENT CO., LTD., priority 2015, dated 2019).

T1: human EphB1 (Homo sapiens, UniProt P54762)
T1 construct: a protein of the extracellular region of each human Eph receptor fused with the SEAP protein and the His tag; made in house; host or cells: Expi293F cells (culture supernatant)
T1 sequence (P54762 18-540 limits assumed): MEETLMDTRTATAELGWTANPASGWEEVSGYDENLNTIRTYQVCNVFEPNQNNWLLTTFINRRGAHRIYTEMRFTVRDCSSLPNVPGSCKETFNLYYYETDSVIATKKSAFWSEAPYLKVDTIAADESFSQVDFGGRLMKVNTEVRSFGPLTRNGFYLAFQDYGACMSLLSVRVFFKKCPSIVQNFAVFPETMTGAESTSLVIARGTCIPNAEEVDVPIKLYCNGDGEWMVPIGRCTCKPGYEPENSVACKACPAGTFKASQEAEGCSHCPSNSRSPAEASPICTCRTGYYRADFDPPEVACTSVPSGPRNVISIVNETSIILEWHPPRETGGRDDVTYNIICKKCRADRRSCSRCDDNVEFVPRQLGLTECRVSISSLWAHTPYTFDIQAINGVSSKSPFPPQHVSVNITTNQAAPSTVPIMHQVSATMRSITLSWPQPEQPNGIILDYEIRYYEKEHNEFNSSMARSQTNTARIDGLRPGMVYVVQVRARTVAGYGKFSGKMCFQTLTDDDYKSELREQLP

T2: human EphB4 (Homo sapiens, UniProt P54760)
T2 construct: a protein of the extracellular region of each human Eph receptor fused with the SEAP protein and the His tag; made in house; host or cells: Expi293F cells
T2 sequence (P54760 16-539 limits assumed): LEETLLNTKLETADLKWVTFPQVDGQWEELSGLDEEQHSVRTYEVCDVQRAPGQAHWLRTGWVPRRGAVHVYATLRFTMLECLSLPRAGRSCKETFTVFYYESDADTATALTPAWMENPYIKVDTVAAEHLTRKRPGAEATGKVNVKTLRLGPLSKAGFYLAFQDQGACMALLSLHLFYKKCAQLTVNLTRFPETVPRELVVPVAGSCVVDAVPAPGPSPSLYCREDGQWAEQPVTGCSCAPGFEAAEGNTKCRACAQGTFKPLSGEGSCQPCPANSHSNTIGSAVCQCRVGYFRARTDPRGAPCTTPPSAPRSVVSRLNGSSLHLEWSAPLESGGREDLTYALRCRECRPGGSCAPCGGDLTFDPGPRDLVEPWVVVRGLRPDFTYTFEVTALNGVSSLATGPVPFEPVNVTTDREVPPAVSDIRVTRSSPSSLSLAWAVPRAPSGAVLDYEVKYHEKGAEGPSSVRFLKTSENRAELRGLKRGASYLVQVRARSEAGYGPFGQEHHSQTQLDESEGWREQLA

T3: human EphB6 (Homo sapiens, UniProt O15197)
T3 construct: a protein of the extracellular region of each human Eph receptor fused with the SEAP protein and the His tag; made in house; host or cells: Expi293F cells
T3 sequence (O15197 32-594 limits assumed): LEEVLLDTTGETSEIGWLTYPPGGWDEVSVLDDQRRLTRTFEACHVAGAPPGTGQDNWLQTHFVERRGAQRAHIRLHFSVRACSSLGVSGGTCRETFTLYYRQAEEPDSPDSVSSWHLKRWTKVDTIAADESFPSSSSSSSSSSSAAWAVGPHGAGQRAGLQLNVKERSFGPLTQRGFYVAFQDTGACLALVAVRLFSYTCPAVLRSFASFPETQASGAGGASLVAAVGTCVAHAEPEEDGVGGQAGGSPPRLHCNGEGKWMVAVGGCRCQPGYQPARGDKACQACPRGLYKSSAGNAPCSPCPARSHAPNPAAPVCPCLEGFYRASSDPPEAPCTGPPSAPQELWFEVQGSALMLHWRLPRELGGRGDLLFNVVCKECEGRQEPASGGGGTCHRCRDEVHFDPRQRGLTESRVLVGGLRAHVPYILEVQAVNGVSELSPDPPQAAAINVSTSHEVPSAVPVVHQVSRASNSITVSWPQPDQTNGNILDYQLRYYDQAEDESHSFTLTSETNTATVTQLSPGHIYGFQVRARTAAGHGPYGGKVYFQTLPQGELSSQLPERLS


Columns and labels:
Test in all cases: Selectivity ELISA of humanized antibodies for human Eph receptor
Type in all cases: binding
Settings in all cases: coated protein 1 nM
human EphB1 = biological target: T1, human EphB1
Summary of the method: (§1)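 Read-out is A450 after TMB development stopped with 1N H2SO4. Plates bore anti-His-captured human Eph extracellular region-SEAP-His proteins at 1 nM final, made in Expi293F cells. Humanized antibody binding ran 1 h at room temperature before HRP-labeled anti-IgG detection.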

human EphB4 = biological target: T2, human EphB4
Summary of the method: as §1

human EphB6 = biological target: T3, human EphB6
Summary of the method: as §1

Row | Molecule | hEphB1-SEAP-: absorbance at 450 nm, percentage with respect to hEphA4-SEAP-His as 100% (human EphB1) | hEphB4-SEAP-: absorbance at 450 nm, percentage with respect to hEphA4-SEAP-His as 100% (human EphB4) | hEphB6-SEAP-: absorbance at 450 nm, percentage with respect to hEphA4-SEAP-His as 100% (human EphB6)
1 | 133 (antibody, V domains shown, synthetic humanized antibody heavy chain variable region sequence; synthetic humanized antibody light chain variable region sequence) VH: QVQLVQSGSELKKPGASVKVSCKASGYTFTDYSMHWVRQAPGQGLEWMGWINTETGEPTYAQGFTGRFVFSLDTSVSTAYLQISSLKAEDTAVYYCARIPLYYYGSRYWYFDVWGQGTTVTVSS VL: EIVMTQSPATLSVSPGERATLSCRASENIYRNLAWYQQKPGQSPRLLIYAATNLADGIPARFSGSGSGTEYTLTISSLQSEDFAVYYCQHFWGTPWTFGQGTKVEIK | 4.6% | 4.9% | 4.8%
2 | 75 (antibody, synthetic humanized antibody heavy chain variable region sequence; synthetic humanized antibody light chain variable region sequence; synthetic antibody constant region sequence) VH: QVQLVQSGSELKKPGASVKVSCKASGYTFTDYSMHWVRQAPGQGLEWMGWINTETGEPTYAQGFTGRFVFSLDTSVSTAYLQISSLKAEDTAVYYCARIPLYYYGSRYWYFDVWGQGTTVTVSS VL: DIQMTQSPSSLSASVGDRVTITCRASENIYRNLAWYQQKPGKAPKLLVYAATNLADGVPSRFSGSGSGTDYTLTISSLQPEDFATYYCQHFWGTPWTFGQGTKVEIK ASTKGPSVFPLAPSSKSTSGGTAALGCLVKDYFPEPVTVSWNSGALTSGVHTFPAVLQSSGLYSLSSVVTVPSSSLGTQTYICNVNHKPSNTKVDKRVEPKSCDKTHTCPPCPAPPAAAPSVFLFPPKPKDTLMISRTPEVTCVVVDVSHEDPEVQFNWYVDGVEVHNAKTKPREEQFNSTFRVVSVLTVVHQDWLNGKEYKCKVSNKGLPAPIEKTISKTKGQPREPQVYTLPPSREEMTKNQVSLTCLVKGFYPSDIAVEWESNGQPENNYKTTPPMLDSDGSFFLYSKLTVDKSRWQQGNVFSCSVMHEALHNHYTQKSLSLSPG | 4.4% | 4.6% | 4.7%
3 | 132 (antibody, V domains shown, synthetic humanized antibody heavy chain variable region sequence; synthetic humanized antibody light chain variable region sequence) VH: QIQLVQSGSELKKPGASVKVSCKASGYTFTDYSMHWVRQAPGQGLKWMGWINTETGEPTYAQGFTGRFVFSLDTSVSTAYLQISSLKAEDTAVYYCARIPLYYYGSRYWYFDVWGQGTTVTVSS VL: EIVMTQSPATLSVSPGERATLSCRASENIYRNLAWYQQKPGQSPRLLIYAATNLADGIPARFSGSGSGTEYTLTISSLQSEDFAVYYCQHFWGTPWTFGQGTKVEIK | 4.8% | 4.8% | 4.7%
4 | 76 (antibody, V domains shown, synthetic humanized antibody heavy chain variable region sequence; synthetic humanized antibody light chain variable region sequence) VH: QVQLVQSGSELKKPGASVKVSCKASGYTFTDYSMHWVRQAPGQGLKWMGWINTETGEPTYAQGFTGRFVFSLDTSVSTAYLQISSLKAEDTAVYYCARIPLYYYGSRYWYFDVWGQGTTVTVSS VL: DIQMTQSPSSLSASVGDRVTITCRASENIYRNLAWYQQKPGKAPKLLVYAATNLADGVPSRFSGSGSGTDYTLTISSLQPEDFATYYCQHFWGTPWTFGQGTKVEIK | 4.9% | 5.2% | 5.2%
5 | 67 (antibody, V domains shown, synthetic humanized antibody heavy chain variable region sequence; synthetic humanized antibody light chain variable region sequence) VH: QIQLVQSGSELKKPGASVKVSCKASGYTFTDYSMHWVRQAPGQGLKWMGWINTETGEPTYAQGFTGRFVFSLDTSVSTAYLQISSLKAEDTAVYYCARIPLYYYGSRYWYFDVWGQGTTVTVSS VL: DIQMTQSPSSLSASVGDRVTITCRASENIYRNLAWYQQKPGKAPKLLVYAATNLADGVPSRFSGSGSGTDYTLTISSLQPEDFATYYCQHFWGTPWTFGQGTKVEIK | 4.6% | 4.9% | 4.7%

Now from value to molecule:

Row | hEphB1-SEAP-: absorbance at 450 nm, percentage with respect to hEphA4-SEAP-His as 100% (human EphB1) | hEphB4-SEAP-: absorbance at 450 nm, percentage with respect to hEphA4-SEAP-His as 100% (human EphB4) | hEphB6-SEAP-: absorbance at 450 nm, percentage with respect to hEphA4-SEAP-His as 100% (human EphB6) | Molecule
6 | 5.1% | 5.1% | 5.2% | 134 (antibody, V domains shown, synthetic humanized antibody heavy chain variable region sequence; synthetic humanized antibody light chain variable region sequence) VH: QVQLVQSGSELKKPGASVKVSCKASGYTFTDYSMHWVRQAPGQGLKWMGWINTETGEPTYAQGFTGRFVFSLDTSVSTAYLQISSLKAEDTAVYYCARIPLYYYGSRYWYFDVWGQGTTVTVSS VL: EIVMTQSPATLSVSPGERATLSCRASENIYRNLAWYQQKPGQSPRLLIYAATNLADGIPARFSGSGSGTEYTLTISSLQSEDFAVYYCQHFWGTPWTFGQGTKVEIK
7 | 5.1% | 5.1% | 5.3% | 135 (antibody, V domains shown, synthetic humanized antibody heavy chain variable region sequence; synthetic humanized antibody light chain variable region sequence) VH: QVQLVQSGSELKKPGASVKVSCKASGYTFTDYSMHWVRQAPGQGLEWMGWINTETGEPTYADDFKGRFVFSLDTSVSTAYLQISSLKAEDTAVYYCARIPLYYYGSRYWYFDVWGQGTTVTVSS VL: EIVMTQSPATLSVSPGERATLSCRASENIYRNLAWYQQKPGQSPRLLIYAATNLADGIPARFSGSGSGTEYTLTISSLQSEDFAVYYCQHFWGTPWTFGQGTKVEIK
